B1: NEK8 (parent)
chain: VVGTPCYISPELCEGKPYNQKSDI

Variants of: B1
Experiment: protein stability index of a GFP-peptide fusion (GPS, HEK-293T) (PSI 1-6); higher = more stable
Settings: c terminus: a fixed tail appended
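Note: lentivirally expressed fusions sorted by FACS into six bins by GFP to DsRed ratio, PSI derived from sequencing read proportions per bin multiplied by bin number.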

**Q.** Which protein stability index does the source give for VVGTPCYISPELCDGKPYNQKSDI here?
**A.** The protein stability index was 2.45.

**Q.** For VVGTPCYISPELCCGKPYNQKSDI, which protein stability index is on record?
**A.** The protein stability index was 2.73.

**Q.** For VVGTPCYISPELCAGKPYNQKSDI, which protein stability index is on record?
**A.** The protein stability index was 2.49.

**Q.** Which protein stability index does the source give for VVGTPCYISPELCPGKPYNQKSDI here?
**A.** Its protein stability index is 2.79.

**Q.** With VVGTPCYISPELCFGKPYNQKSDI as the variant, how does the protein stability index read?
**A.** The protein stability index was 1.82.

**Q.** Which protein stability index does the source give for VVGTPCYISPELCQGKPYNQKSDI here?
**A.** The protein stability index was 2.37.

**Q.** Which protein stability index does the source give for VVGTPCYISPELCIGKPYNQKSDI here?
**A.** The protein stability index was 2.2.

**Q.** Which protein stability index does the source give for VVGTPCYISPELCHGKPYNQKSDI here?
**A.** The protein stability index was 2.23.

**Q.** Which protein stability index does the source give for VVGTPCYISPELCGGKPYNQKSDI here?
**A.** Its protein stability index is 2.52.

**Q.** For VVGTPCYISPELCNGKPYNQKSDI, which protein stability index is on record?
**A.** Its protein stability index is 2.52.

**Q.** With VVGTPCYISPELCLGKPYNQKSDI as the variant, how does the protein stability index read?
**A.** Its protein stability index is 2.67.

**Q.** For VVGTPCYISPELCVGKPYNQKSDI, which protein stability index is on record?
**A.** Its protein stability index is 2.23.

**Q.** With VVGTPCYISPELCKGKPYNQKSDI as the variant, how does the protein stability index read?
**A.** The protein stability index was 2.6.

**Q.** With VVGTPCYISPELCMGKPYNQKSDI as the variant, how does the protein stability index read?
**A.** Its protein stability index is 2.28.

**Q.** With VVGTPCYISPELCRGKPYNQKSDI as the variant, how does the protein stability index read?
**A.** The protein stability index was 2.51.

**Q.** For VVGTPCYISPELCTGKPYNQKSDI, which protein stability index is on record?
**A.** The protein stability index was 2.73.

**Q.** For VVGTPCYISPELCSGKPYNQKSDI, which protein stability index is on record?
**A.** The protein stability index was 2.38.

**Q.** With VVGTPCYISPNLCEGKPYNQKSDI as the variant, how does the protein stability index read?
**A.** The protein stability index was 2.66.

**Q.** For VVGTPCYISPPLCEGKPYNQKSDI, which protein stability index is on record?
**A.** The protein stability index was 1.76.

**Q.** For VVGTPCYISPYLCEGKPYNQKSDI, which protein stability index is on record?
**A.** The protein stability index was 2.05.

**Q.** With VVGTPCYISPALCEGKPYNQKSDI as the variant, how does the protein stability index read?
**A.** Its protein stability index is 2.68.

**Q.** Which protein stability index does the source give for VVGTPCYISPRLCEGKPYNQKSDI here?
**A.** Its protein stability index is 2.49.

**Q.** With VVGTPCYISPHLCEGKPYNQKSDI as the variant, how does the protein stability index read?
**A.** The protein stability index was 2.03.

**Q.** For VVGTPCYISPWLCEGKPYNQKSDI, which protein stability index is on record?
**A.** The protein stability index was 1.08.

**Q.** Which protein stability index does the source give for VVGTPCYISPLLCEGKPYNQKSDI here?
**A.** Its protein stability index is 1.8.

**Q.** With VVGTPCYISPQLCEGKPYNQKSDI as the variant, how does the protein stability index read?
**A.** Its protein stability index is 2.31.

**Q.** Which protein stability index does the source give for VVGTPCYISPMLCEGKPYNQKSDI here?
**A.** Its protein stability index is 2.32.

**Q.** With VVGTPCYISPGLCEGKPYNQKSDI as the variant, how does the protein stability index read?
**A.** The protein stability index was 2.54.

**Q.** Which protein stability index does the source give for VVGTPCYISPDLCEGKPYNQKSDI here?
**A.** The protein stability index was 3.16.

**Q.** Which protein stability index does the source give for VVGTPCYISPTLCEGKPYNQKSDI here?
**A.** Its protein stability index is 2.48.

**Q.** For VVGTPCYISPVLCEGKPYNQKSDI, which protein stability index is on record?
**A.** The protein stability index was 1.59.

**Q.** With VVGTPCYISPFLCEGKPYNQKSDI as the variant, how does the protein stability index read?
**A.** The protein stability index was 1.5.

**Q.** For VVGTPCYISPILCEGKPYNQKSDI, which protein stability index is on record?
**A.** Its protein stability index is 2.52.

**Q.** With VVGTPCYISPKLCEGKPYNQKSDI as the variant, how does the protein stability index read?
**A.** The protein stability index was 2.74.

**Q.** For VVGTPCYISPCLCEGKPYNQKSDI, which protein stability index is on record?
**A.** Its protein stability index is 1.68.

**Q.** For VVGTPCYISPSLCEGKPYNQKSDI, which protein stability index is on record?
**A.** Its protein stability index is 2.7.

**Q.** With VVGTPCYISPEYCEGKPYNQKSDI as the variant, how does the protein stability index read?
**A.** The protein stability index was 2.27.

**Q.** For VVGTPCYISPENCEGKPYNQKSDI, which protein stability index is on record?
**A.** Its protein stability index is 3.62.

**Q.** For VVGTPCYISPEDCEGKPYNQKSDI, which protein stability index is on record?
**A.** The protein stability index was 3.4.

**Q.** For VVGTPCYISPEWCEGKPYNQKSDI, which protein stability index is on record?
**A.** Its protein stability index is 1.83.

**Q.** For VVGTPCYISPEICEGKPYNQKSDI, which protein stability index is on record?
**A.** The protein stability index was 2.93.

**Q.** Which protein stability index does the source give for VVGTPCYISPEACEGKPYNQKSDI here?
**A.** The protein stability index was 3.1.

**Q.** Which protein stability index does the source give for VVGTPCYISPEPCEGKPYNQKSDI here?
**A.** The protein stability index was 3.6.

**Q.** For VVGTPCYISPEGCEGKPYNQKSDI, which protein stability index is on record?
**A.** Its protein stability index is 4.29.

**Q.** With VVGTPCYISPEVCEGKPYNQKSDI as the variant, how does the protein stability index read?
**A.** Its protein stability index is 2.83.

**Q.** With VVGTPCYISPEQCEGKPYNQKSDI as the variant, how does the protein stability index read?
**A.** Its protein stability index is 2.71.

**Q.** For VVGTPCYISPETCEGKPYNQKSDI, which protein stability index is on record?
**A.** The protein stability index was 3.15.

**Q.** With VVGTPCYISPEKCEGKPYNQKSDI as the variant, how does the protein stability index read?
**A.** Its protein stability index is 3.69.

**Q.** With VVGTPCYISPESCEGKPYNQKSDI as the variant, how does the protein stability index read?
**A.** Its protein stability index is 3.15.

**Q.** With VVGTPCYISPEECEGKPYNQKSDI as the variant, how does the protein stability index read?
**A.** Its protein stability index is 4.11.

**Q.** For VVGTPCYISPEHCEGKPYNQKSDI, which protein stability index is on record?
**A.** The protein stability index was 3.59.

**Q.** For VVGTPCYISPECCEGKPYNQKSDI, which protein stability index is on record?
**A.** The protein stability index was 3.29.

**Q.** With VVGTPCYISPEFCEGKPYNQKSDI as the variant, how does the protein stability index read?
**A.** The protein stability index was 2.15.

**Q.** For VVGTPCYISPERCEGKPYNQKSDI, which protein stability index is on record?
**A.** The protein stability index was 3.35.

**Q.** For VVGTPCYISPEMCEGKPYNQKSDI, which protein stability index is on record?
**A.** The protein stability index was 2.76.

**Q.** With VVGTPCYIKPELCEGKPYNQKSDI as the variant, how does the protein stability index read?
**A.** The protein stability index was 3.61.

**Q.** Which protein stability index does the source give for VVGTPCYIQPELCEGKPYNQKSDI here?
**A.** Its protein stability index is 2.62.

**Q.** Which protein stability index does the source give for VVGTPCYIVPELCEGKPYNQKSDI here?
**A.** The protein stability index was 2.31.

**Q.** With VVGTPCYIFPELCEGKPYNQKSDI as the variant, how does the protein stability index read?
**A.** The protein stability index was 1.96.

**Q.** For VVGTPCYILPELCEGKPYNQKSDI, which protein stability index is on record?
**A.** The protein stability index was 1.68.

**Q.** Which protein stability index does the source give for VVGTPCYIGPELCEGKPYNQKSDI here?
**A.** The protein stability index was 2.99.

**Q.** For VVGTPCYIEPELCEGKPYNQKSDI, which protein stability index is on record?
**A.** Its protein stability index is 3.16.

**Q.** For VVGTPCYIAPELCEGKPYNQKSDI, which protein stability index is on record?
**A.** The protein stability index was 2.45.

**Q.** With VVGTPCYIWPELCEGKPYNQKSDI as the variant, how does the protein stability index read?
**A.** The protein stability index was 2.25.

**Q.** Which protein stability index does the source give for VVGTPCYIMPELCEGKPYNQKSDI here?
**A.** The protein stability index was 2.4.

**Q.** For VVGTPCYIYPELCEGKPYNQKSDI, which protein stability index is on record?
**A.** The protein stability index was 1.55.

**Q.** With VVGTPCYIPPELCEGKPYNQKSDI as the variant, how does the protein stability index read?
**A.** Its protein stability index is 3.58.

**Q.** Which protein stability index does the source give for VVGTPCYIHPELCEGKPYNQKSDI here?
**A.** Its protein stability index is 2.04.

**Q.** With VVGTPCYIIPELCEGKPYNQKSDI as the variant, how does the protein stability index read?
**A.** The protein stability index was 2.32.

**Q.** For VVGTPCYICPELCEGKPYNQKSDI, which protein stability index is on record?
**A.** Its protein stability index is 1.94.

**Q.** For VVGTPCYIDPELCEGKPYNQKSDI, which protein stability index is on record?
**A.** The protein stability index was 3.44.

**Q.** For VVGTPCYINPELCEGKPYNQKSDI, which protein stability index is on record?
**A.** Its protein stability index is 2.31.

**Q.** Which protein stability index does the source give for VVGTPCYITPELCEGKPYNQKSDI here?
**A.** Its protein stability index is 2.61.

**Q.** With VVGTPCYIRPELCEGKPYNQKSDI as the variant, how does the protein stability index read?
**A.** Its protein stability index is 2.48.

**Q.** For VVGTPCYISVELCEGKPYNQKSDI, which protein stability index is on record?
**A.** The protein stability index was 1.75.

**Q.** For VVGTPCYISCELCEGKPYNQKSDI, which protein stability index is on record?
**A.** Its protein stability index is 2.22.

**Q.** With VVGTPCYISTELCEGKPYNQKSDI as the variant, how does the protein stability index read?
**A.** Its protein stability index is 2.74.

**Q.** Which protein stability index does the source give for VVGTPCYISAELCEGKPYNQKSDI here?
**A.** Its protein stability index is 2.96.

**Q.** For VVGTPCYISYELCEGKPYNQKSDI, which protein stability index is on record?
**A.** The protein stability index was 1.91.

**Q.** Which protein stability index does the source give for VVGTPCYISFELCEGKPYNQKSDI here?
**A.** The protein stability index was 2.03.

**Q.** Which protein stability index does the source give for VVGTPCYISWELCEGKPYNQKSDI here?
**A.** The protein stability index was 1.9.

**Q.** Which protein stability index does the source give for VVGTPCYISLELCEGKPYNQKSDI here?
**A.** The protein stability index was 2.01.

**Q.** With VVGTPCYISDELCEGKPYNQKSDI as the variant, how does the protein stability index read?
**A.** The protein stability index was 3.23.

**Q.** With VVGTPCYISEELCEGKPYNQKSDI as the variant, how does the protein stability index read?
**A.** Its protein stability index is 3.6.

**Q.** Which protein stability index does the source give for VVGTPCYISSELCEGKPYNQKSDI here?
**A.** Its protein stability index is 3.39.

**Q.** With VVGTPCYISQELCEGKPYNQKSDI as the variant, how does the protein stability index read?
**A.** Its protein stability index is 3.49.

**Q.** With VVGTPCYISGELCEGKPYNQKSDI as the variant, how does the protein stability index read?
**A.** Its protein stability index is 3.56.

**Q.** Which protein stability index does the source give for VVGTPCYISIELCEGKPYNQKSDI here?
**A.** Its protein stability index is 1.49.

**Q.** With VVGTPCYISHELCEGKPYNQKSDI as the variant, how does the protein stability index read?
**A.** The protein stability index was 3.66.

**Q.** For VVGTPCYISKELCEGKPYNQKSDI, which protein stability index is on record?
**A.** The protein stability index was 3.56.

**Q.** For VVGTPCYISNELCEGKPYNQKSDI, which protein stability index is on record?
**A.** The protein stability index was 3.44.

**Q.** For VVGTPCYISMELCEGKPYNQKSDI, which protein stability index is on record?
**A.** The protein stability index was 2.24.

**Q.** For VVGTPCYISRELCEGKPYNQKSDI, which protein stability index is on record?
**A.** The protein stability index was 2.98.

**Q.** Which protein stability index does the source give for VVGTPCYISPELLEGKPYNQKSDI here?
**A.** Its protein stability index is 2.88.

From the supplement of paper PMC10567573
